# Experimental data: US8795990B2, “Recombinant enzyme with altered feedback sensitivity” (Metabolic Explorer, priority 2004, dated 2014)
# Legend:
# [1] = target: homoserine transsuccinylase enzyme MetA (Escherichia coli, UniProt P07623); conditions: in words; cited from earlier work
# E. coli = conditions: growth rate of E. coli; cited from earlier work
# [2] = system: homoserine transsuccinylase; assay: Homoserine transsuccinylase activity in vitro in crude extracts, succinylhomoserine quantified by GC-MS, with or without methionine and S-adenosylmethionine; conditions: for MetA activity of clones in pTRC99A: alleles cloned in pTRC99A with an alanine between amino acid 1M and 2P
# Method: The activity of homoserine transsuccinylase was determined in vitro E. coli strains carrying either wild-type or mutant-enzymes were cultured in rich medium with 2.5 g/l glucose and harvested at late log phase. Cells were resuspended in cold potassium phosphate buffer and sonicated on ice (Branson sonifier, 70W). After centrifugation, proteins contained in the supernatants were quantified (Bradford, 1976).
# Ten μl of the extracts were incubated for 30 minutes at 25° C. with 30 mM homoserine and 4 mM succinyl-CoA. Methionine and/or S-adenosylmethionine were added as indicated. The succinylhomoserine produced by homoserine transsuccinylase enzymes was quantified by GC-MS after derivatization with tert-butyldimethylsilyltrifluoroacetamide (TBDMSTFA). L-Serine[1-13C] was included as an internal standard.
# [3] = system: S-adenosylmethionine synthetase; assay: S-adenosylmethionine synthetase (MAT) activity in vitro in crude extracts, FIA-MS/MS; format: biochemical, E. coli; conditions: 10 mM methionine, 10 mM ATP, 37° C., 30 minutes
# [4] = Methionine 0 mM, S-adenosylmethionine 0 mM, rich medium extracts
# [5] = Methionine 0 mM, S-adenosylmethionine 0.1 mM
# [6] = Methionine 0 mM, S-adenosylmethionine 1 mM
# [7] = Methionine 10 mM, S-adenosylmethionine 0 mM
# [8] = Methionine 10 mM, S-adenosylmethionine 0.1 mM
# [9] = Methionine 10 mM, S-adenosylmethionine 1 mM
# Chain of homoserine transsuccinylase enzyme MetA (P07623 whole entry): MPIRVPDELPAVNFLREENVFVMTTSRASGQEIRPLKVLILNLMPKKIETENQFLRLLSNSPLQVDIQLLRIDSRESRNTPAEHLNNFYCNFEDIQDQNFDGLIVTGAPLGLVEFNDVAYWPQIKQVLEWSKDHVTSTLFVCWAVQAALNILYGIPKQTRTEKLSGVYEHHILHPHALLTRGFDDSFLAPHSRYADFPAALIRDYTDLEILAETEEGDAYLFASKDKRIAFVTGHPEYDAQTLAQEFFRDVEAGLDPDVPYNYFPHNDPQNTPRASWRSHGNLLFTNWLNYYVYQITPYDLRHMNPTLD
molecule,measurement,setting,value
CSCC[C@](C)(N)C(=O)O [α-methylmethionine],inhibition of homoserine transsuccinylase enzyme MetA,[1],potent inhibitor
same,minimal concentration for a maximal inhibition,E. coli,5 µg/mL
same,minimal inhibitory concentration,E. coli,1 µg/mL
"metA: wild-type E. coli homoserine transsuccinylase (metA gene, strain MG1655) (protein, UniProt P07623 2-309, looked up) Homoserine …: PIRVPDELPAVNFLREENVFVMTTSRASGQEIRPLKVLILNLMPKKIETENQFLRLLSNSPLQVDIQLLRIDSRESRNTPAEHLNNFYCNFEDIQDQNFDGLIVTGAPLGLVEFNDVAYWPQIKQVLEWSKDHVTSTLFVCWAVQAALNILYGIPKQTRTEKLSGVYEHHILHPHALLTRGFDDSFLAPHSRYADFPAALIRDYTDLEILAETEEGDAYLFASKDKRIAFVTGHPEYDAQTLAQEFFRDVEAGLDPDVPYNYFPHNDPQNTPRASWRSHGNLLFTNWLNYYVYQITPYDLRHMNPTLD",Specific activity,[2]; [4],36.7 mUI/mg proteins
same,Specific activity,[2]; [5],27.9 mUI/mg proteins
same,Specific activity,[2]; [6],4.7 mUI/mg proteins
same,Specific activity,[2]; [7],0.4 mUI/mg proteins
same,Specific activity,[2]; [8],0.2 mUI/mg proteins
same,Specific activity,[2]; [9],0.1 mUI/mg proteins
same,MetA activity of clones in pTRC99A,[2],vary low
"metA*11: mutant homoserine transsuccinylase allele, CAG exchanged for GAG, Q replaced by E (Q64E) (protein, UniProt P07623 2-309, looked up, variant Q64E) Homoserine …: PIRVPDELPAVNFLREENVFVMTTSRASGQEIRPLKVLILNLMPKKIETENQFLRLLSNSPLEVDIQLLRIDSRESRNTPAEHLNNFYCNFEDIQDQNFDGLIVTGAPLGLVEFNDVAYWPQIKQVLEWSKDHVTSTLFVCWAVQAALNILYGIPKQTRTEKLSGVYEHHILHPHALLTRGFDDSFLAPHSRYADFPAALIRDYTDLEILAETEEGDAYLFASKDKRIAFVTGHPEYDAQTLAQEFFRDVEAGLDPDVPYNYFPHNDPQNTPRASWRSHGNLLFTNWLNYYVYQITPYDLRHMNPTLD",Specific activity,[2]; [4],19.2 mUI/mg proteins
same,Specific activity,[2]; [5],21.7 mUI/mg proteins
same,Specific activity,[2]; [6],18.5 mUI/mg proteins
same,Specific activity,[2]; [7],18.7 mUI/mg proteins
same,Specific activity,[2]; [8],16.9 mUI/mg proteins
same,Specific activity,[2]; [9],2.7 mUI/mg proteins
same,MetA activity of clones in pTRC99A,[2],vary low
"MetK* T227I (protein, UniProt P0A817 2-384, looked up, variant T227I) S-adenosylmethionine synthase: AKHLFTSESVSEGHPDKIADQISDAVLDAILEQDPKARVACETYVKTGMVLVGGEITTSAWVDIEEITRNTVREIGYVHSDMGFDANSCAVLSAIGKQSPDINQGVDRADPLEQGAGDQGLMFGYATNETDVLMPAPITYAHRLVQRQAEVRKNGTLPWLRPDAKSQVTFQYDDGKIVGIDAVVLSTQHSEEIDQKSLQEAVMEEIIKPILPAEWLTSATKFFINPIGRFVIGGPMGDCGLTGRKIIVDTYGGMARHGGGAFSGKDPSKVDRSAAYAARYVAKNIVAAGLADRCEIQVSYAIGVAEPTSIMVETFGTEKVPSEQLTLLVREFFDLRPYGLIQMLDLLHPIYKETAAYGHFGREHFPWEKTDKAQLLRDAAGLK",MAT (S-adenosylmethionine synthetase activity),[3],4.9 mUI/mg prot
"MetK* G105S (protein, UniProt P0A817 2-384, looked up, variant G105S) S-adenosylmethionine synthase: AKHLFTSESVSEGHPDKIADQISDAVLDAILEQDPKARVACETYVKTGMVLVGGEITTSAWVDIEEITRNTVREIGYVHSDMGFDANSCAVLSAIGKQSPDINQSVDRADPLEQGAGDQGLMFGYATNETDVLMPAPITYAHRLVQRQAEVRKNGTLPWLRPDAKSQVTFQYDDGKIVGIDAVVLSTQHSEEIDQKSLQEAVMEEIIKPILPAEWLTSATKFFINPTGRFVIGGPMGDCGLTGRKIIVDTYGGMARHGGGAFSGKDPSKVDRSAAYAARYVAKNIVAAGLADRCEIQVSYAIGVAEPTSIMVETFGTEKVPSEQLTLLVREFFDLRPYGLIQMLDLLHPIYKETAAYGHFGREHFPWEKTDKAQLLRDAAGLK",MAT (S-adenosylmethionine synthetase activity),[3],2.8 mUI/mg prot
"MetK* P137L (protein, UniProt P0A817 2-384, looked up, variant P137L) S-adenosylmethionine synthase: AKHLFTSESVSEGHPDKIADQISDAVLDAILEQDPKARVACETYVKTGMVLVGGEITTSAWVDIEEITRNTVREIGYVHSDMGFDANSCAVLSAIGKQSPDINQGVDRADPLEQGAGDQGLMFGYATNETDVLMPALITYAHRLVQRQAEVRKNGTLPWLRPDAKSQVTFQYDDGKIVGIDAVVLSTQHSEEIDQKSLQEAVMEEIIKPILPAEWLTSATKFFINPTGRFVIGGPMGDCGLTGRKIIVDTYGGMARHGGGAFSGKDPSKVDRSAAYAARYVAKNIVAAGLADRCEIQVSYAIGVAEPTSIMVETFGTEKVPSEQLTLLVREFFDLRPYGLIQMLDLLHPIYKETAAYGHFGREHFPWEKTDKAQLLRDAAGLK",MAT (S-adenosylmethionine synthetase activity),[3],1.2 mUI/mg prot
"WT: wild-type E. coli S-adenosylmethionine synthetase (MetK) (protein, UniProt P0A817 2-384, looked up) S-adenosylmethionine synthase: AKHLFTSESVSEGHPDKIADQISDAVLDAILEQDPKARVACETYVKTGMVLVGGEITTSAWVDIEEITRNTVREIGYVHSDMGFDANSCAVLSAIGKQSPDINQGVDRADPLEQGAGDQGLMFGYATNETDVLMPAPITYAHRLVQRQAEVRKNGTLPWLRPDAKSQVTFQYDDGKIVGIDAVVLSTQHSEEIDQKSLQEAVMEEIIKPILPAEWLTSATKFFINPTGRFVIGGPMGDCGLTGRKIIVDTYGGMARHGGGAFSGKDPSKVDRSAAYAARYVAKNIVAAGLADRCEIQVSYAIGVAEPTSIMVETFGTEKVPSEQLTLLVREFFDLRPYGLIQMLDLLHPIYKETAAYGHFGREHFPWEKTDKAQLLRDAAGLK",MAT (S-adenosylmethionine synthetase activity),[3],7.5 mUI/mg prot
"MetK* R161C + P235S (protein, UniProt P0A817 2-384, looked up, variant R161C P235S) S-adenosylmethionine synthase: AKHLFTSESVSEGHPDKIADQISDAVLDAILEQDPKARVACETYVKTGMVLVGGEITTSAWVDIEEITRNTVREIGYVHSDMGFDANSCAVLSAIGKQSPDINQGVDRADPLEQGAGDQGLMFGYATNETDVLMPAPITYAHRLVQRQAEVRKNGTLPWLCPDAKSQVTFQYDDGKIVGIDAVVLSTQHSEEIDQKSLQEAVMEEIIKPILPAEWLTSATKFFINPTGRFVIGGSMGDCGLTGRKIIVDTYGGMARHGGGAFSGKDPSKVDRSAAYAARYVAKNIVAAGLADRCEIQVSYAIGVAEPTSIMVETFGTEKVPSEQLTLLVREFFDLRPYGLIQMLDLLHPIYKETAAYGHFGREHFPWEKTDKAQLLRDAAGLK",MAT (S-adenosylmethionine synthetase activity),[3],0.7 mUI/mg prot
"MetK* H143T (protein, UniProt P0A817 2-384, looked up, variant H143T) S-adenosylmethionine synthase: AKHLFTSESVSEGHPDKIADQISDAVLDAILEQDPKARVACETYVKTGMVLVGGEITTSAWVDIEEITRNTVREIGYVHSDMGFDANSCAVLSAIGKQSPDINQGVDRADPLEQGAGDQGLMFGYATNETDVLMPAPITYATRLVQRQAEVRKNGTLPWLRPDAKSQVTFQYDDGKIVGIDAVVLSTQHSEEIDQKSLQEAVMEEIIKPILPAEWLTSATKFFINPTGRFVIGGPMGDCGLTGRKIIVDTYGGMARHGGGAFSGKDPSKVDRSAAYAARYVAKNIVAAGLADRCEIQVSYAIGVAEPTSIMVETFGTEKVPSEQLTLLVREFFDLRPYGLIQMLDLLHPIYKETAAYGHFGREHFPWEKTDKAQLLRDAAGLK",MAT (S-adenosylmethionine synthetase activity),[3],2.5 mUI/mg prot
"MetK* H189Y (protein, UniProt P0A817 2-384, looked up, variant H189Y) S-adenosylmethionine synthase: AKHLFTSESVSEGHPDKIADQISDAVLDAILEQDPKARVACETYVKTGMVLVGGEITTSAWVDIEEITRNTVREIGYVHSDMGFDANSCAVLSAIGKQSPDINQGVDRADPLEQGAGDQGLMFGYATNETDVLMPAPITYAHRLVQRQAEVRKNGTLPWLRPDAKSQVTFQYDDGKIVGIDAVVLSTQYSEEIDQKSLQEAVMEEIIKPILPAEWLTSATKFFINPTGRFVIGGPMGDCGLTGRKIIVDTYGGMARHGGGAFSGKDPSKVDRSAAYAARYVAKNIVAAGLADRCEIQVSYAIGVAEPTSIMVETFGTEKVPSEQLTLLVREFFDLRPYGLIQMLDLLHPIYKETAAYGHFGREHFPWEKTDKAQLLRDAAGLK",MAT (S-adenosylmethionine synthetase activity),[3],0.6 mUI/mg prot
"MetK* G115S (protein, UniProt P0A817 2-384, looked up, variant G115S) S-adenosylmethionine synthase: AKHLFTSESVSEGHPDKIADQISDAVLDAILEQDPKARVACETYVKTGMVLVGGEITTSAWVDIEEITRNTVREIGYVHSDMGFDANSCAVLSAIGKQSPDINQGVDRADPLEQSAGDQGLMFGYATNETDVLMPAPITYAHRLVQRQAEVRKNGTLPWLRPDAKSQVTFQYDDGKIVGIDAVVLSTQHSEEIDQKSLQEAVMEEIIKPILPAEWLTSATKFFINPTGRFVIGGPMGDCGLTGRKIIVDTYGGMARHGGGAFSGKDPSKVDRSAAYAARYVAKNIVAAGLADRCEIQVSYAIGVAEPTSIMVETFGTEKVPSEQLTLLVREFFDLRPYGLIQMLDLLHPIYKETAAYGHFGREHFPWEKTDKAQLLRDAAGLK",MAT (S-adenosylmethionine synthetase activity),[3],0.4 mUI/mg prot
"MetK* S59N + G105S (protein, UniProt P0A817 2-384, looked up, variant S59N G105S) S-adenosylmethionine synthase: AKHLFTSESVSEGHPDKIADQISDAVLDAILEQDPKARVACETYVKTGMVLVGGEITTNAWVDIEEITRNTVREIGYVHSDMGFDANSCAVLSAIGKQSPDINQSVDRADPLEQGAGDQGLMFGYATNETDVLMPAPITYAHRLVQRQAEVRKNGTLPWLRPDAKSQVTFQYDDGKIVGIDAVVLSTQHSEEIDQKSLQEAVMEEIIKPILPAEWLTSATKFFINPTGRFVIGGPMGDCGLTGRKIIVDTYGGMARHGGGAFSGKDPSKVDRSAAYAARYVAKNIVAAGLADRCEIQVSYAIGVAEPTSIMVETFGTEKVPSEQLTLLVREFFDLRPYGLIQMLDLLHPIYKETAAYGHFGREHFPWEKTDKAQLLRDAAGLK",MAT (S-adenosylmethionine synthetase activity),[3],2.9 mUI/mg prot
